Measured values: the supplement of paper PMC10567573

B1: SLC6A17 (parent)
chain: HMFTPKLDKMLDPQVWREAATQVF

Variants of: B1
Test: protein stability index of a GFP-peptide fusion (GPS, HEK-293T) (PSI 1-6); higher = more stable
Details: c terminus: a fixed tail appended
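Further: lentivirally expressed fusions sorted by FACS into six bins by GFP to DsRed ratio, PSI derived from sequencing read proportions per bin multiplied by bin number.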

Protein stability index, by site and new letter:
H1: A 2.73; C 1.56; D 2.3; E 2.17; F 2.13; G 1.79; K 1.5; L 1.88; M 2.74; N 1.56; P 2.72; Q 2.29; R 1.98; S 2.06; T 1.46; V 2.51; Y 1.79
M2: A 1.9; C 2.01; D 2.34; E 2.49; F 1.65; G 1.92; H 2.49; I 2.53; K 2.13; L 1.71; N 2.43; P 2.36; Q 2.52; R 2.56; S 2.03; T 2.14; V 1.62; W 1.81; Y 2.84
F3: A 2.2; C 2.25; D 2.69; E 3.49; G 1.91; H 2.17; I 2.45; K 1.98; L 1.99; M 1.81; N 2.86; P 2.65; Q 2.17; R 2.4; S 2.27; T 2.01; V 2.7; W 2.07; Y 2.6
T4: A 2.4; C 2.49; D 1.76; E 2.31; F 1.9; G 2.1; H 1.79; I 1.45; K 1.67; L 2.69; M 2.97; N 1.39; P 2.07; Q 1.8; R 2.39; S 2.67; W 2.21; Y 2.11
P5: A 2.46; C 1.53; D 2.61; E 2.4; G 1.61; H 1.85; I 3.2; K 1.69; L 1.55; M 1.03; Q 2.49; R 1.78; S 2.09; T 1.53; V 1.69; W 1.3; Y 2.08
K6: A 1.99; C 1.98; D 2.67; E 1.74; F 1.65; G 1.8; H 1.83; I 1.7; L 2.1; M 1.62; N 2.11; P 2.01; Q 1.51; R 1.76; S 1.89; T 1.74; V 1.24; W 2.1; Y 2.85
L7: A 1.94; C 1.86; D 2.55; E 2.86; F 1.8; G 2.24; H 1.79; I 1.4; K 2.73; M 2.38; N 1.99; P 2.1; Q 2.55; R 1.89; S 2.02; T 2.27; V 1.79; W 1.62; Y 1.46
D8: A 1.82; C 1.67; E 1.5; F 2.81; G 2.06; H 1.84; I 1.65; K 2.79; L 1.76; M 1.81; N 2.33; P 3.01; Q 1.87; R 3.33; S 2.3; T 2.27; V 1.34; W 1.86; Y 2
K9: A 1.21; D 2.63; E 1.58; F 1.52; G 1.25; H 2.94; I 1.66; L 1.83; M 2.03; N 2.04; P 3.02; Q 1.92; R 2.42; S 1.53; T 2.1; V 1.5; W 2.95; Y 1.33
M10: C 2.31; D 2.63; E 2.57; F 2.59; G 2.15; H 1.42; I 1.74; K 1.78; L 3.08; N 1.99; P 2.4; Q 2.78; R 1.78; S 2.17; T 1.66; V 1.85; W 2.05; Y 2.23
L11: A 1.55; C 2.17; D 1.87; F 2.33; G 2.9; H 2.23; I 2.39; K 2.24; M 2.05; N 2.29; P 2.16; Q 2.35; R 3.13; S 2.18; T 2.18; V 1.87; W 1.63; Y 2.43
D12: A 1.98; C 2.67; E 1.39; F 1.63; G 1.3; H 1.66; I 1.79; K 1.63; M 1.42; N 1.34; P 1.91; Q 2.2; R 1.81; S 1.98; T 2.45; V 1.32; W 2.8; Y 1.34
P13: A 2; C 1.82; D 1.79; E 2.4; F 1.67; H 1.54; I 1.29; K 2.34; L 1.86; M 2.33; N 2.4; Q 2.19; S 1.93; T 1.76; V 2.11; W 1; Y 1.69
Q14: A 1.73; E 2.41; F 2.13; G 1.56; H 1.74; I 1.12; K 2.26; L 2.14; M 2.06; N 2.23; P 1.63; R 1.94; S 1.59; T 2.23; V 2.51; W 1.69; Y 2.03
V15: A 2.38; C 2.12; D 2.96; E 2.84; F 2.22; G 1.96; H 2.34; I 1.35; K 2.39; L 2.37; M 1.63; N 1.9; P 2.81; Q 1.89; R 3.24; S 2.15; T 2.66; W 2.24; Y 2.12
W16: A 2.47; C 2.75; D 3.83; E 3.76; F 2.47; G 3.27; H 3.88; I 2.33; K 2.94; L 2.34; M 2.14; N 3.2; P 3.78; Q 3.06; R 3.72; S 2.87; T 3.05; V 2.59; Y 2.62
R17: A 1.36; C 1.39; D 2.46; E 2.3; F 1.27; G 2; H 1.74; I 2.08; K 1.11; L 3.05; M 2.42; N 2.26; P 1.89; Q 1.84; S 2.8; T 1.82; V 2.18; W 1.6; Y 1.18
E18: A 2.04; C 1.29; D 1.87; F 1.85; G 1.02; H 1.91; I 1.97; K 1.08; L 1.38; M 1.52; N 2.3; P 1.86; Q 2.22; R 3.18; S 1.99; T 1.79; V 2.37; Y 1.75
A19: C 3.43; D 2.21; E 1.96; F 2.03; G 1.63; H 2.14
